Test results as given in publication PMC5091667 (ACS chemical biology, 2016).
Bridges are numbered along the chain shown (N, C = ends).

Columns and labels:
CD58 (Homo sapiens) = CD58 (Homo sapiens) (UniProt P19256); settings: cited from earlier work
[1] = biological target: T1, CD58 protein (purified cell-adhesion domain, domain 1) (UniProt P19256 29-215); assay: SPR
T1 sequence (looked up): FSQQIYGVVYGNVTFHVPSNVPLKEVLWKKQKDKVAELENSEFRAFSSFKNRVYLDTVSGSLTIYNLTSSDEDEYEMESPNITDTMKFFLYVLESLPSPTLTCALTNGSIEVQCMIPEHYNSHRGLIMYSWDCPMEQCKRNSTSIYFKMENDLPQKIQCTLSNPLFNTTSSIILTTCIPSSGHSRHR

Question: With CD2 (from UniProt P06729) as the molecule, how does the Kd (CD58 (Homo sapiens)) read?
Answer: 10 µM

B1: SFTI-a (peptide)
peptide: cyclo(CKASAPPSCYDGDD)
modifications: disulfide 1-9
SMILES: C[C@@H]1NC(=O)[C@H](CCCCN)NC(=O)[C@@H]2CSSC[C@H](NC(=O)[C@H](CO)NC(=O)[C@@H]3CCCN3C(=O)[C@@H]3CCCN3C(=O)[C@H](C)NC(=O)[C@H](CO)NC1=O)C(=O)N[C@@H](Cc1ccc(O)cc1)C(=O)N[C@@H](CC(=O)O)C(=O)NCC(=O)N[C@@H](CC(=O)O)C(=O)N[C@@H](CC(=O)O)C(=O)N2
Question: With B1 as the molecule, how does the koff [1] read?
Answer: 0.00329 s⁻¹

Question: What about the kon [1] of the same molecule?
Answer: 224 M⁻¹ s⁻¹

Question: With cyclo(CTKSIPPICFPDGR) (disulfide 1-9 (inferred)) [sunflower trypsin inhibitor SFTI-1] as the molecule, how does the Kd [1] read?
Answer: > 500 µM
